Assay results taken from article PMC9410881.

What was measured:
Aca10 G49Y mutant = test: SEC-MALS; conditions: parent: 17.39
Aca10 E52R mutant = test: SEC-MALS; conditions: parent: 17.39
Aca10 D7K variant = test: SEC-MALS; conditions: parent: 17.39
[1] = molecular target: Aca10 from Pseudomonas citronellolis (pcAca10), wild type (Pseudomonas citronellolis); test: SEC-MALS; Superdex 200 Increase 10/300 GL, SEC buffer (20 mM Tris-HCl pH 8.0, 150 mM NaCl), 0.5 ml/min, 20°C; self-association of Aca10

Substance: Aca10 from Pseudomonas citronellolis (pcAca10), wild type G49Y
- other: MALS molecular weight (MW) (Aca10 G49Y mutant): 10.2 kDa

Substance: Aca10 from Pseudomonas citronellolis (pcAca10), wild type E52R
- other: MALS molecular weight (MW) (Aca10 E52R mutant): 14.2 kDa

Substance: Aca10 from Pseudomonas citronellolis (pcAca10), wild type D7K
- other: MALS molecular weight (MW) (Aca10 D7K variant): 17 kDa

Substance: Aca10 from Pseudomonas citronellolis (pcAca10), wild type (natural protein)
- stoichiometry N [1]: 2
